Measured values: the supplement of paper PMC7877785
± gives the uncertainty stated by the source.

Test: self-splicing fitness, log relative to wild type (ln ratio); higher = more splicing; Tetrahymena group I intron in knt gene, E. coli kanamycin selection, DiMSum; sequences stand for … in CUCUCU…GGAGGGAAAAGUUAUCAGGCAUGCACCUGGUAGCUAGUCUUUAAACCAAUAGAUUGCAUCGGUUUAAAAGGCAAGACCGUCAAAUUGCGGGAAAGGGGUCAACAGCCGUUCAGUACCAAGUCUCAGGGGAAACUUUGAGAUGGCCUUGCAAAGGGUAUGGUAAUAAGCUGACGGACAUGGUCCUAACCACGCAGCCAAGUCCUAAGUCAACAGAUCUUCUGUUGAUAUGGAUGCAGUUCACAGACUAAAUGUCGGUCGGGGAAGAUGUAUUCUUCUCAUAAGAUAUAGUCGGACCUCUCCUUAAUGGGAGCUAGCGGAUGAAGUGAUGCAACACUGGAGCCGCUGGGAACUAAUUUGUAUGCGAAAGUAUAUUGAUUAGUUUUGGAGUACUCGUGGUCG
Summary of the method: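 Pooled colonies went to amplicon sequencing on an Illumina HiSeq 2500 after six replicate transformations. The plates were LB agar with 100 μg/mL carbenicillin, 50 μM IPTG and 0.2% rhamnose, with or without 25 μg/mL kanamycin, incubated overnight at 37°C or 30°C. The E. coli BL21(DE3) library had all eight P1ex-region intron nucleotides randomised, the intron placed in the knt kanamycin-resistance gene on pET-22b(+). DiMSum fitness is the error-weighted combination of replicate fold changes, kanamycin against none, normalised to wild type.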

| Sequence | self-splicing fitness (ln) (30 °C) | self-splicing fitness (ln) (37 °C) |
| --- | --- | --- |
| AAUGAGCAAUAUUACGUUUU | -3.53 ± 0.16 | -2.15 ± 0.17 |
| AAUUAGCAAUAUUACGACCU | 0.197 ± 0.19 | 0.333 ± 0.21 |
| AAUUAGCAAUAUUACGACGA | -0.729 ± 0.12 | -0.15 ± 0.2 |
| AAUUAGCAAUAUUACGAGCA | -1.1 ± 0.12 | -0.758 ± 0.1 |
| AAUUAGCAAUAUUACGAUAU | -0.45 ± 0.093 | 0.012 ± 0.12 |
| AAUUAGCAAUAUUACGCAGU | -2.78 ± 0.16 | -1.3 ± 0.2 |
| AAUUAGCAAUAUUACGCCAG |  | -2.11 ± 0.31 |
| AAUUAGCAAUAUUACGCCCA | 0.555 ± 0.24 | -0.278 ± 0.36 |
| AAUUAGCAAUAUUACGCGUA | -1.07 ± 0.12 | -0.804 ± 0.14 |
| AAUUAGCAAUAUUACGCGUU | -3.13 ± 0.32 | -2.61 ± 0.28 |
| AAUUAGCAAUAUUACGCUAU | -2.55 ± 0.26 | -1.97 ± 0.31 |
| AAUUAGCAAUAUUACGCUUA | -0.993 ± 0.12 | 0.247 ± 0.14 |
| AAUUAGCAAUAUUACGGCCA | -0.657 ± 0.14 | 0.518 ± 0.17 |
| AAUUAGCAAUAUUACGGCUU | -0.0634 ± 0.092 | 0.169 ± 0.13 |
| AAUUAGCAAUAUUACGGGAG | -2.99 ± 0.19 | -2.17 ± 0.16 |
| AAUUAGCAAUAUUACGGGCC |  | -1.11 ± 0.49 |
| AAUUAGCAAUAUUACGUAAC | -1.98 ± 0.16 | -1.55 ± 0.29 |
| AAUUAGCAAUAUUACGUCGC | -3.08 ± 0.27 | -1.38 ± 0.21 |
| AAUUAGCAAUAUUACGUCUA | -0.734 ± 0.087 | -0.256 ± 0.093 |

| Sequence | self-splicing fitness (ln) (30 °C) | self-splicing fitness (ln) (37 °C) |
| --- | --- | --- |
| AAUUAGCAAUAUUACGUCUC | -0.875 ± 0.12 | -0.478 ± 0.16 |
| AAUUAGCAAUAUUACGUGCA | -0.984 ± 0.096 | -0.374 ± 0.12 |
| AAUUAGCAAUAUUACGUUGG | -3.34 ± 0.17 | -2.56 ± 0.16 |
| ACAAAGCAAUAUUACGAAAU | -3.02 ± 0.13 | -1.42 ± 0.12 |
| ACAAAGCAAUAUUACGAAUG | -1.68 ± 0.057 | -1.02 ± 0.085 |
| ACAAAGCAAUAUUACGACAU | -0.488 ± 0.011 | 0.0402 ± 0.032 |
| ACAAAGCAAUAUUACGAGCU | -0.866 ± 0.066 | -0.624 ± 0.097 |
| ACAAAGCAAUAUUACGAGGC | -2.57 ± 0.16 | -1.59 ± 0.34 |
| ACAAAGCAAUAUUACGCCAU | -3.96 ± 0.2 | -2.24 ± 0.14 |
| ACAAAGCAAUAUUACGCCUA | -1.61 ± 0.13 | -1.32 ± 0.12 |
| ACAAAGCAAUAUUACGCGCA | -0.72 ± 0.067 | -0.569 ± 0.078 |
| ACAAAGCAAUAUUACGCGUC | -4.08 ± 0.31 | -2.09 ± 0.22 |
| ACAAAGCAAUAUUACGCGUU | -3.19 ± 0.1 | -2.69 ± 0.14 |
| ACAAAGCAAUAUUACGCUAU | -2.38 ± 0.088 | -0.848 ± 0.092 |
| ACAAAGCAAUAUUACGCUCC | -1.29 ± 0.16 | -0.526 ± 0.17 |
| ACAAAGCAAUAUUACGCUCG | -0.887 ± 0.08 | 0.156 ± 0.12 |
| ACAAAGCAAUAUUACGCUUC | -3.15 ± 0.14 | -2.46 ± 0.16 |
| ACAAAGCAAUAUUACGGAUU | -2.49 ± 0.085 | -0.946 ± 0.081 |
| ACAAAGCAAUAUUACGGCAA | -0.0281 ± 0.08 | -0.252 ± 0.1 |
